Test results taken from the supplement of paper PMC10567573.

B1: VAMP4 (parent)
chain: FLRGPSGPRFGPRNDKIKHVQNQV

Variants of: B1
Assay: protein stability index of a GFP-peptide fusion (GPS, HEK-293T) (PSI 1-6); higher = more stable
Conditions: c terminus: a fixed tail appended
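Note: lentivirally expressed fusions sorted by FACS into six bins by GFP to DsRed ratio, PSI derived from sequencing read proportions per bin multiplied by bin number.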

Variant | protein stability index
FLRGPSGPRFGARNDKIKHVQNQV [P12A] | 2.54
FLRGPSGPRFGFRNDKIKHVQNQV [P12F] | 2.7
FLRGPSGPRFGGRNDKIKHVQNQV [P12G] | 2.99
FLRGPSGPRFGMRNDKIKHVQNQV [P12M] | 2.61
FLRGPSGPRFGLRNDKIKHVQNQV [P12L] | 2.2
FLRGPSGPRFGCRNDKIKHVQNQV [P12C] | 2.13
FLRGPSGPRFGNRNDKIKHVQNQV [P12N] | 3.12
FLRGPSGPRFGQRNDKIKHVQNQV [P12Q] | 2.34
FLRGPSGPRFGSRNDKIKHVQNQV [P12S] | 3.27
FLRGPSGPRFGPRNDKIKWVQNQV [H19W] | 1.57
FLRGPSGPRFGPRNDKIKSVQNQV [H19S] | 2.7
FLRGPSGPRFGPRNDKIKVVQNQV [H19V] | 2.95
FLRGPSGPRFGPRNDKIKLVQNQV [H19L] | 2.72
FLRGPSGPRFGPRNDKIKMVQNQV [H19M] | 2.6
FLRGPSGPRFGPRNDKIKQVQNQV [H19Q] | 2.42
FLRGPSGPRGGPRNDKIKHVQNQV [F10G] | 2.89
FLRGPSGPRLGPRNDKIKHVQNQV [F10L] | 3.21
FLRGPSGPRCGPRNDKIKHVQNQV [F10C] | 2.53
FLRGPSGPRHGPRNDKIKHVQNQV [F10H] | 3.07
FLRGPSGPRRGPRNDKIKHVQNQV [F10R] | 3.15
FLRGPSGPRSGPRNDKIKHVQNQV [F10S] | 2.86
FLRGPSGPRDGPRNDKIKHVQNQV [F10D] | 3.15
FLRGPSGPRYGPRNDKIKHVQNQV [F10Y] | 2.27
FLRGPSGPRPGPRNDKIKHVQNQV [F10P] | 3.02

Variant | protein stability index
FLRGPSGPRFGPRNDKIPHVQNQV [K18P] | 3.1
FLRGPSGPRFGPRNDKICHVQNQV [K18C] | 2.04
FLRGPSGPRFGPRNDKIYHVQNQV [K18Y] | 2.15
FLRGPSGPRFGPRNDKIIHVQNQV [K18I] | 2.31
FLRGPSGPRFGPRNDKIWHVQNQV [K18W] | 1.48
FLRGPSGPRFGPRNDKILHVQNQV [K18L] | 1.93
FLRGPSGPRFGPRNDKIVHVQNQV [K18V] | 2.91
FLRGPSGPRFGPRNDKINHVQNQV [K18N] | 2.83
GLRGPSGPRFGPRNDKIKHVQNQV [F1G] | 3.65
DLRGPSGPRFGPRNDKIKHVQNQV [F1D] | 3.75
RLRGPSGPRFGPRNDKIKHVQNQV [F1R] | 3.35
TLRGPSGPRFGPRNDKIKHVQNQV [F1T] | 3.79
FLRGPSGPRFGPRNDKIKHVQNQA [V24A] | 2.85
FLRGPSGPRFGPRNDKIKHVQNQQ [V24Q] | 2.76
FLRGPSGPRFGPRNDKIKHVQNQP [V24P] | 2.94
FLRGPSGPRFGPRNDKIKHVQNQD [V24D] | 3.4
FLRGPSGPRFGPRNDKIKHVQNQL [V24L] | 2.67
FLRGPSGPRFGPRNDKIKHVQNQN [V24N] | 3.49
FLRGPSGPRFGPRNDKIKHVQNQY [V24Y] | 3
FLRGPSGPRFGPRNDKIKHVQNQF [V24F] | 2.53
FLRGPSGPRFGPRNDKIKHVQNQK [V24K] | 3.46
FLRGPSGPRFGPRNDKIKHVQNQW [V24W] | 2.82
FLRYPSGPRFGPRNDKIKHVQNQV [G4Y] | 2.24
FLRAPSGPRFGPRNDKIKHVQNQV [G4A] | 3.07

Variant | protein stability index
FLRVPSGPRFGPRNDKIKHVQNQV [G4V] | 2.6
FLRMPSGPRFGPRNDKIKHVQNQV [G4M] | 2.57
FLRKPSGPRFGPRNDKIKHVQNQV [G4K] | 2.82
FLREPSGPRFGPRNDKIKHVQNQV [G4E] | 3.17
FLRCPSGPRFGPRNDKIKHVQNQV [G4C] | 2.24
FLRLPSGPRFGPRNDKIKHVQNQV [G4L] | 2.59
FLRSPSGPRFGPRNDKIKHVQNQV [G4S] | 3.06
FLRGPSVPRFGPRNDKIKHVQNQV [G7V] | 2.44
FLRGPSDPRFGPRNDKIKHVQNQV [G7D] | 2.44
FLRGPSEPRFGPRNDKIKHVQNQV [G7E] | 2.79
FLRGPSTPRFGPRNDKIKHVQNQV [G7T] | 2.66
FLRGPSNPRFGPRNDKIKHVQNQV [G7N] | 2.74
FLRGPSKPRFGPRNDKIKHVQNQV [G7K] | 2.32
FLRGPSHPRFGPRNDKIKHVQNQV [G7H] | 2.86
FLRGPSGPRFGPRVDKIKHVQNQV [N14V] | 2.73
FLRGPSGPRFGPRGDKIKHVQNQV [N14G] | 2.92
FLRGPSGPRFGPREDKIKHVQNQV [N14E] | 3.39
FLRGPSGPRFGPRFDKIKHVQNQV [N14F] | 2.29
FLRGPSGPRFGPRKDKIKHVQNQV [N14K] | 2.41
FLRGPSGPRFGPRLDKIKHVQNQV [N14L] | 2.55
FLRGPSGPRFGPRNDKIKHVQNSV [Q23S] | 2.54
FLRGPSGPRFGPRNDKIKHVQNEV [Q23E] | 3.39
FLRGPSGPRFGPRNDKIKHVQNAV [Q23A] | 2.81
FLRGPSGPRFGPRNDKIKHVQNKV [Q23K] | 2.22

Variant | protein stability index
FLRGPSGPRFGPRNDKIKHVQNHV [Q23H] | 2.55
FLRGPSGPRFGPRNDKIKHVQNDV [Q23D] | 3.04
FLRGPSGPRFGPRNDKIKHVQNMV [Q23M] | 2.2
FLRGPSGPRFGPRNDKIKHVQNVV [Q23V] | 2.6
FLRGPSGPRFGPRNDKIKHVQNGV [Q23G] | 1.8
FLRGPSGPRFGPRNDKIKHVQWQV [N22W] | 1.42
FLRGPSGPRFGPRNDKIKHVQGQV [N22G] | 2.77
FLRGPSGPRFGPRNDKIKHVQCQV [N22C] | 2.56
FLRGPSGPRFYPRNDKIKHVQNQV [G11Y] | 2.16
FLRGPSGPRFRPRNDKIKHVQNQV [G11R] | 2.34
FLRGPSGPRFTPRNDKIKHVQNQV [G11T] | 2.18
FLRGPSGPRFKPRNDKIKHVQNQV [G11K] | 2.57
FLRGPSGPRFMPRNDKIKHVQNQV [G11M] | 2.52
FLRGPSGPRFQPRNDKIKHVQNQV [G11Q] | 2.78
FLRGPSGPRFFPRNDKIKHVQNQV [G11F] | 2.2
FLRGPSGPRFVPRNDKIKHVQNQV [G11V] | 1.97
FLRGPSGPRFGPRNIKIKHVQNQV [D15I] | 3.2
FLRGPSGPRFGPRNRKIKHVQNQV [D15R] | 2.69
FLRGPSGPRFGPRNKKIKHVQNQV [D15K] | 2.23
FLRGPSGPRFGPRNPKIKHVQNQV [D15P] | 3.23
FLRGPSGPRFGPRNDKWKHVQNQV [I17W] | 1.53
FLRGPSGPRFGPRNDKNKHVQNQV [I17N] | 3.54
